Measurements from publication PMC13376213, “Systematic discovery of motif-based interactions of the auxiliary domains of USP family deubiquitinases” (Nature Communications, 2026).

Biological target: CYLD CAP-Gly1 domain, GST-tagged (UniProt Q9NQC7)
Test: peptide SPOT array alanine scanning
Conditions: parent: est. 0; read off a plot

other: signal change (%)	Substance
-25%	RBM25_(558-573) peptide (from UniProt P49756) A560 (replacement residue not printed)
-60%	RBM25_(558-573) peptide (from UniProt P49756) A569 (replacement residue not printed)

Biological target: CYLD CAP-Gly2 domain, GST-tagged (UniProt Q9NQC7)
Test: peptide SPOT array alanine scanning
Conditions: parent: est. 0; read off a plot

Substance	other: signal change (%)
FBXO46_(168-183) peptide A177 (replacement residue not printed)	-80%
FBXO46_(168-183) peptide A183 (replacement residue not printed)	-55%
FBXO46_(168-183) peptide D168A	150%
FBXO46_(168-183) peptide E174A	-80%
FBXO46_(168-183) peptide L169A	-70%
FBXO46_(168-183) peptide L178A	-65%
FBXO46_(168-183) peptide M175A	-90%
FBXO46_(168-183) peptide S171A	-70%
FBXO46_(168-183) peptide V172A	-75%
FBXO46_(168-183) peptide V176A	-85%
FBXO46_(168-183) peptide V179A	-80%

Second part, the substance after the results:

other: signal change (%)	Substance
-75%	FBXO46_(168-183) peptide A173 (replacement residue not printed)
-75%	FBXO46_(168-183) peptide E180A
-70%	FBXO46_(168-183) peptide L170A
0%	FBXO46_(168-183) peptide Q181A
-85%	FBXO46_(168-183) peptide R182A

Biological target: USP22 zf-UBP domain, tag cleaved (for FP) (human) (UniProt Q9UPT9)
Test: fluorescence polarisation; saturation or displacement not stated for this experiment; 50 mM phosphate buffer pH 7.4, room temperature
Conditions: not given

Kd	Substance
58 µM	ATXN7_(84-105) peptide (from UniProt O15265 84-105)

Biological target: FITC-APBA2 327-338 peptide (human)
Test: fluorescence polarisation; saturation: serial dilution of the protein domain, 10 nM FITC-labelled peptide; 50 mM phosphate buffer pH 7.4 with DTT; room temperature; three technical replicates; quadratic fit
Conditions: not given

Kd	Substance
2.91 µM	USP20 zf-UBP domain (from UniProt Q9Y2K6 1-914) (domain or fragment)
388 µM	USP20 zf-UBP domain E55K/D59R (from UniProt Q9Y2K6 1-914) (domain or fragment)
8.69 µM	USP33 zf-UBP domain (from UniProt Q8TEY7 1-942) (domain or fragment)

Biological target: FITC-ATXN7L1 36-57 peptide (human)
Test: as above
Conditions: not given

Kd	Substance
1 µM	USP22 zf-UBP domain (from UniProt Q9UPT9 1-525) (domain or fragment)

Biological target: FITC-GPR137B 348-362 peptide (human)
Test: as above
Conditions: not given

Kd	Substance
5.14 µM	USP20 DUSP2 domain (from UniProt Q9Y2K6 1-914) (domain or fragment)
293 µM	USP20 DUSP2 domain K833E/K835E (from UniProt Q9Y2K6 1-914) (domain or fragment)
140 µM	USP20 DUSP2 domain N805A (from UniProt Q9Y2K6 1-914) (domain or fragment)

Biological target: FITC-HIF1A 568-581 peptide (human)
Test: as above
Conditions: not given

Kd	Substance
31.3 µM	USP33 DUSP2 domain (from UniProt Q8TEY7 1-942) (domain or fragment)
319 µM	USP33 DUSP2 domain K863E/K865E (from UniProt Q8TEY7 1-942) (domain or fragment)
353 µM	USP33 DUSP2 domain N835A (from UniProt Q8TEY7 1-942) (domain or fragment)

Biological target: FITC-ORAI1 48-63 peptide (human)
Test: as above
Conditions: not given

Kd	Substance
294 µM	USP11 DUSP-UBL tandem domain (from UniProt P51784 1-963) (domain or fragment)

Biological target: USP20 DUSP2 domain, tag cleaved (for FP) (human)
Test: fluorescence polarisation; displacement: unlabeled peptide titrated into the domain (at two-fold the KD of the FITC-labeled peptide) with 10 nM FITC-labeled peptide; 50 mM phosphate buffer pH 7.4, DTT, room temperature; estimated KD
Conditions: not given

Kd	Substance
26 µM	HIF1A peptide hydroxylated at P564
85 µM	HIF1A_(564-581) peptide D571K (from UniProt Q16665 564-581)
89 µM	HIF1A_(564-581) peptide L574A (from UniProt Q16665 564-581)
19 µM	HIF1A_(564-581) peptide, wild type, unlabeled (from UniProt Q16665 564-581)

Biological target: USP33 DUSP2 domain, tag cleaved (for FP) (human) (UniProt Q8TEY7)
Test: as above
Conditions: not given

Kd	Substance
7 µM	HIF1A peptide hydroxylated at P564
145 µM	HIF1A_(564-581) peptide D571K (from UniProt Q16665 564-581)
> 900 µM	HIF1A_(564-581) peptide F572A (from UniProt Q16665 564-581)
> 200 µM	HIF1A_(564-581) peptide L574A (from UniProt Q16665 564-581)
1.5 µM	HIF1A_(564-581) peptide, wild type, unlabeled (from UniProt Q16665 564-581)

Biological target: USP33 zf-UBP domain, tag cleaved (for FP) (human) (UniProt Q8TEY7)
Test: as above
Conditions: not given

Kd	Substance
112 µM	APBA2_(327-338) peptide N334A (from UniProt Q99767 327-338)
> 500 µM	APBA2_(327-338) peptide R330A (from UniProt Q99767 327-338)
< 8 µM	APBA2_(327-338) peptide, wild type, unlabeled

Biological target: USP20 DUSP2 domain (human) (UniProt Q9Y2K6)
Test: fluorescence polarisation; displacement: serial dilution of the unlabelled peptide against the domain (at two-fold the KD of the FITC-labelled peptide) in complex with 10 nM FITC-labelled peptide; 50 mM phosphate buffer pH 7.4; room temperature; three technical replicates; sigmoidal dose-response fit
Conditions: not given

Kd	Substance
589 µM	HIF1A 564-581 F572A peptide

Biological target: USP33 DUSP2 domain (human) (UniProt Q8TEY7)
Test: as above
Conditions: not given

Kd	Substance
930 µM	HIF1A 564-581 F572A peptide
